Experimental findings from the DeepSol protein solubility set are described below.

A short description of this data set: soluble on expression in E. coli; label from the status in PepcDB or PDB records.
Regarding “GPGSMLEPIFEEITCLFASRNPKHALQGLSDGLRNAATGVGLGLAGVVAGTYGGAKEGGLGGMAKGFGAGMAGFVGLTGYGAYAGVRQIVRGVGNTRSAVSEVSKGEAYWDSNAQAWVRVNLACDFERLPQTDEDLLGTARKAYEKAKKDGTLPTTLNDSAEGGGASASSATTGAGAASVPQGTDTGETKPAAAEPVNYYAFLGVESAATPSEIRKAYTRKALEMHPDKNPNDPNATIKFQELNKIYNVLSHEGTRATYDRYGTVDPMNVPEMTGNPMKELLGAAFLEALVGPLHFFLVFEGGVLFTAEMKRELHARRRLRVAKNLVSWLDNGASGFESAQLALRDAVSTALGPVFVSYVAEEYHLASRQQLHGSNWKREMDSWYSSWATSASSLWHWTTMGARTARRAFVDKNLGEEDILRVLAVANERDVRQIVLQACRLVLFDMSVTPAQRQQRAMRLEELSVMAMKEVAREVASRERIGASEATAAAAEKGTTTKTPADTNATAPPFS”, the “soluble on expression in E. coli” value is on record as “soluble”. The result for “GPGSMLILLFFSPEMLRRTLSRCFSADAIGPVHPDVMWGYMDARYAGPGWVSWIKQLPVETLTMQGGTSMTNMNDRTGVIADPEDPRHPIALIQWGPMNHYDGAFMQLSYGDYGPISQGSRLMQVLYDNYLEPFSMNRVCAQLYFYQKVPNNYHESVEASAEYIGQTASLIGQVLVGMGSVIMEGVTVKGDTNCVYIAEGVQVLENTCIVSDAPTDLLAYQRHEAINPYQQWDGMDGVCRIMQNTIIEPNCFLDSCSIGPFNRIGHNTKIMKGVTTGTMVHILPGSVVTKDTKIGDGELWGGAPAVKIGKVSKFEWKRPYFASLLHRESVVESYRNMSRYGDQVVHFQDKMGKLDTLMLQYEKDVPASVKAKIKEFVQGREPFHHMLTRITQGWSPANRPDDKNYNLCPPLPGVKLFAEHNNDSSDSDLHGTYMDITNIFNDFRW” reads “not soluble”; that for “GPGSMLRHAARCFSPRQCYVSPRVMEAEYAVRGLIPARADEIKADLATGHGTYSFESLVYCNIGNPQSVGQMPLTFYRQVMVLVDAPFLLEDAEIVARLPEDAVARARRYLSEIGTGTGAYTESFGFRFARAAVAAHINELDHGVSPAATVNDICLTDGASMGAKLFLQLLVGGASDAVMIPVPQYPLYSAQIALLGGVKVPYGLHESEGWVMKLSDLVAAYERCVTESGATPRLFVCINPGNPTGNVLERCVMEDVVRFCHERGMLLLADEVYQENVYDTRRRFLSFREVVLGMPEPYCSETMLVSLHSTSKGVIGECGRRGGYFCMTNLPAALRQQVVKLCSINLCANVNGQLMTALMCSPPREGEASYALHRREYDEIFTGMKERAELLARELGAVRGLSCQPVEGAMYAFPRIVLPERYAQRNEELNAKEGRQLALDARWALELLESSGIVVVPGSGFGQEPGTLHFRITILPPLEQIDRMVRAIREFQDRIYEQYA”, “soluble”; that for “GPGSMLTTTDVGGVVRRINVDYKKLKAAYDQNNDSLCLNLVNGLKKQLILLPTFLNPAAASATWLEEVTLTREVLEYAVLVSARLEDLASFELYFNQLSVYYTDIDPTKLEESPLYSLILGLNLVRLLVDDRIAQFHTELEKVPNHIYAPNAYVRFAVLLERYLMEGSYSKLLNSRDQAPSKEYIPIVGMLEKTVRQGVAECIPHSYAKLSFERAQKILMVDSTDAVREIGKQYEWELGKDGASFVFTRREDIAKREVPFQEMLGHHLNFAADLQRIV”, “soluble”. Then “GPGSMMTPEDATGLEAARKQKIHNLKLKTACLENEELVQELHISDWSETQRQKLRGAHEKGEELLASVEVGTKWNLMEAYDLAKLMRVCGLEMSQRELYRPEDKPQFMDIIGVKKVLQDLRQNRNKTRVVSFTQLIDNSIAKMEKVEEELRRSQLDATQLAQVPTRTVKMMEDIMNATQIQNALASTDDQMQTQLAQLEKTNEIQNVAMHDGEMQVAEEQMWTKVQLQERLIELLKDKFGLIGKCEEENAQFKEIYEVQKQANQETSQMKDAKRRLRQRCETDLKHIQDAIQKADLEDAEAAKRYAGNKERSERAIKENEEMQEEAWNKIQDLERQLQNLGTDRFDEVKRRIEEVDREEKRRVENAQFLEIAAQHKKLLELTVYNCDLAMRCTGLVEELVSEGCAGVKARYDKTNQDLAALRLEVHKEHLEYFRMLYLTLGSLIYKKEKRLEEIDRNIRLAHIQLEFCVETFDPNAKKHADMKKELYKLRQGVEEELAMLKEKQAAALDDFKESEEALDAAGIEFSHPVDENNEEVLTRRSKMVEYKSHLTKQEEVRIAAEREEIKRARLLRSGGESAAAQITSGSMNADYAASAQLEL”, with “soluble”; and “GPGSMMTTCPQTRCYNCGTFGHSSQICHSKPHCFHCSHSGHRSSECPMRSKGRVCYQCNEPGHEAANCPQGQLCRMCHRPGHFVAHCPEVVCNLCHLKGHTAGVCDNVHCDNCGRNHETVHCHQPYLAPVTHDRVSEERSASLPSEHDPSSADQSNNSATPCDSDDGGSNRGGEPRPRTGVSCAPVVPPYIPLDGPKRDGRVAIVVDGSYFERCVAVRRNRSDPTYYRHITDALLYTIDYIGDIFQCEPFAYWFDTDTAAFREFVETSMPLAHRENAFREASMRKRYLTDEMNSGRSLPNVVAKLVGGMKRQRGFTEDGPGHVWVQTGVDVATATCVIELFQDRRQFRQVVLLCGDADVYPAVQYCNTLRRSSHQHADSNPVRVCGTSDSMSKIYGQQQDLTDFLPRLLLDCPLHTEGGRTIEFPTSKVFMSVR”, with “not soluble”. Then “GPGSMNLGHAAASSIVVKVAELAKKAFYRLKISSAYSSKLTEAVGTALMSADPEVPVDPNRRSGGHVIRNMIYQHDSSHNIEIVTGWKDQGTREYNQQIAPPAKLDLSPKHPCYPLNEQLVRCSLECPMEMKLAGRIASCNSERKNLMVCLTKNKSWKEEPASAWYKFF”, with “not soluble”; and “GPGSMPADEAQAPTQTEVYDRLKWNGWGVEDVQMQIDDENPLWVRHVDGKPIKNLLEFLYQEISGGVGPKEIPPLSPSIPLEKALAKLNKANINEAFMKDISAVLEKSQIRPDGKSRLCHIAGKNYRDLWRVRKGMVEHAPDCILLPNSHKDCVEIMRLAHKHNVVVIPFGGGTNVTGGVEADPFERARMIISVDMRRMNRMISIDRESRLATFETGVLGPDLDAQLFRHGFMLGHDPDSYIYSTLGGWIGARGSGAMSNQYGDIEDMVVAVKVATPTGIIETPTTSRTCGVDLNGLFIGSEGSFGIITEATIKLETIPETKLYEGYLFPTFEAGFSAFYTCTAKGIHPCTMRLYDEDDFRMSMAMSTTKHSFFQRLVSMGVKSFLERYRGWNLRRISLVIVGFEGTPDRVKFQRSETAAVFKQYGGVGVGRSAGATWQDKKYDLPYIRDFALSLSHWADVFETSVLYSQAIPCWRAVKAAVRQVWKEHGHRGWIGCHTAHQYKYGCCLYFTFASAQKDDMDMKIFLAIKKRATEAMLAHTGNLTHHHGIGYEHVPWMSRYMGPDALDLLFAVKQKVDPKNICNPGKLLPSPPRENESAAALKARQQRELMFDKMGVPGAVASHI”, with “not soluble”. On to “GPGSMPPSHTLLNRRGQQFSSRMHVGAKRKRVEDNASPVSSLYRPLCRGLSTRGSGASAVSCPSVVVILEKAGLLLGREGVVDAYDRAGSTTIANASLRDVRPDIVHQCLLALFDSGLAQEQRQLRVFINLFSRGGRTVEVSPSLRPPRTLRRFKGLVAALLRDGVVRSQDGEVLLQVLPGSLAPVLPYGAEVIGLTNAHSAPVRTPTQLARAALENPVDDKLQGGLKGVAGFFCICCSEDGSLDGVDYVTQQVCLSAYPMTAHVMCSRLCEGFSRAAATGNR”, for which the “soluble on expression in E. coli” value is recorded as “not soluble”. Then “GPGSMPVEREVITLAFGNYSSLVAAQWANGTSHYDAHHSTLYSECRSADVLGGGSSGNGRVRVPRLLLLDAPYASAFDDIDVWARKYKDDAKIGEEGDAAYNPSEASPSPVHRGDATEEKDHLFASVVKAVQRHVFEQHGLDDDDSHGGNDDAGGADDAQNDDGEDADAHLLDEDEEDDVSKNAGRRGSATIPHSRAQRQARLKRKLFDEHNTTIPWWQYITTGLGPNSVTSVKPLQHVDAAGDLPALHSFGYGLAYLRDGGRSSEVVDLNDALRRNLEAADQLQGIQCFTDGDGLFGGAAANVLEQLWEDAGPKTPVVQACSFARLPALVADPAYRAEVAFRERRMDEVALNQLLATLHLSRHTSAVYIPVPLSDWDVLFKGAATAASPTEAPPWLQDERATAQLLAAVIDTALYGLRDGSRASGVSSQGPQWYMDEWCRVVRPAPSLRVAAAMGALPQSVSASSELWEFLQANPLLPDAPQLDERMVRANDSAEDDASSGQARQQAKFFPLTHTMSTYSTAHTAGQVLGHVASLRGAGCLPATVYPAREAMLRYALPLRTSTYLPLVTEVSYPISDTFPTELLFADPAAMAKVPGGASGSGGSEGITSLRRVLQSVDVGAHVLSTYATAPMLHDISTKAQAALRNKMDRYCDAYVMEKDDWREALDEGLALFDDYNHAPLSDAQDGGGSDGDDY”, with “not soluble”.
